Experimental data: publication PMC4703834

Molecular target: Δ4-DgkA (thermostable mutant of Escherichia coli diacylglycerol kinase) (Escherichia coli) (UniProt P0ABN1)
Assay: crystal structure; in meso (lipid cubic phase) crystals of Δ4-DgkA in 9.9 MAG at 4 °C, soaked with zinc-ACP (ternary complex, 2.7 Å) or without nucleotide; synchrotron data at 100 K

stoichiometry N: 3
Substance: Δ4-DgkA (thermostable mutant of Escherichia coli diacylglycerol kinase) (from UniProt P0ABN1 2-122) (enzyme)
